According to patent US20130129730A1 (Amgen, published 2013):
Numbering of substitutions follows the chain as printed.

T1: human EpCAM (human, UniProt P16422 24-314)
T1 construct: whole, on cells; also called Epithelial cell adhesion molecule; CD326
T1 sequence (looked up): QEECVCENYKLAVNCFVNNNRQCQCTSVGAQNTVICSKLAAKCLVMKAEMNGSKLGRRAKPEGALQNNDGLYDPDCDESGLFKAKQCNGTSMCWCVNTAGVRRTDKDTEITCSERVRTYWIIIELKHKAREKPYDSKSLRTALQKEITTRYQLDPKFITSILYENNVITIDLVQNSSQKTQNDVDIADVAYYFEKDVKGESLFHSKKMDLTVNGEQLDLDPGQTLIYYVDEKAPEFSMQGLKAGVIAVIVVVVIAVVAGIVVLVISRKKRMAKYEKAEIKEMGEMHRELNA

B1: scFv PM52-C3 (scFv)
scFv: QVQLVQSGAEVKKPGASVKLSCKASGYTFTYFDINWVRQTPEQGLEWMGGISPGDGNTNYNENFKGRVTMTRDTSSSTAYMELSRLRSDDTAVYYCARDGNFPYYAMDSWGQGTTVTVSSGGGGSGGGGSGGGGSDVVMTQSPLSLPVTLGEPASISCRSSQSLVYSNGNTYLHWYQQKPGQSPRLLIYKVSNRFSGVPDRFSGSGSGTDFTLKISRVEAEDVGVYFCSQSTHVPYTFGQGTKLEIKDYKDDDDK
notes: Tested as periplasmic preparation from E. coli; also called PM52C3-VH-VL; not shown: His6-tag
B2: scFv PM52-H3 (scFv)
scFv: B1 scFv with S76K
notes: Tested as periplasmic preparation from E. coli; also called PM52H3-VH-VL; not shown: His6-tag
B3: scFv PM75-A10 (scFv)
scFv: B1 scFv with D108V, S109N
notes: Tested as periplasmic preparation from E. coli; also called PM75A10-VH-VL; not shown: His6-tag
B4: scFv PM91-B6 (scFv)
scFv: B1 scFv with M107L, D108T, S109N
notes: Tested as periplasmic preparation from E. coli; also called PM91B6-VH-VL; not shown: His6-tag
B5: scFv PM74-G3 (scFv)
scFv: QVQLVQSGAEVKKPGASVKLSCKASGYTFTYFDINWVRQAPEQGLEWMGGISPGDGNTNYNENFKGRVTMTIDTSSSTAYIELSRLTSDDTAVYYCARDGNFPYYAMDSWGQGTTVTVSSGGGGSGGGGSGGGGSDVVMTQTPLSLPVSLGDQASISCRSSQSLVHSNGNTYLHWYLQKPGQSPKLLIYKVSNRFSGVPDRFSGSGSGTDFTLKISRVEAEDLGVYFCSQSTHVPYTFGGGTKLEIKDYKDDDDK
notes: Tested as periplasmic preparation from E. coli; also called PM74G3-VH-VL; not shown: His6-tag

Biological target: T1, human EpCAM
Experiment: flow cytometry, scFv periplasmic preparation on human EpCAM transfected CHO cells
Protocol: Periplasmic preparations of E. coli clones producing the scFv molecules EpCAM 4-7, PM74-G3, PM52-H3, PM52-C3, PM75-A10 and PM91-B6 are used to examine specific binding to human PSMA or human EpCAM transfected cell lines. As negative control untransfected CHO cell are used.
For flow cytometry 2,5×10⁵ cells are incubated with 50 μl of scFv periplasmic preparation. The binding of scFv to the cells is detected with an anti-His antibody (Penta-His Antibody, BSA free, Qiagen GmbH, Hilden, FRG) at 2 μg/ml in 50 μl PBS with 2% FCS. As a second step reagent a R-Phycoerythrin-conjugated affinity purified F(ab′)2 fragment, goat anti-mouse IgG (Fc-gamma fragment specific), diluted 1:100 in 50 μl PBS with 2% FCS (Dianova, Hamburg, FRG) is used. The samples are measured on a FACSscan (BD biosciences, Heidelberg, FRG).
Flow cytometry is performed on a FACS-Calibur apparatus; the CellQuest software is used to acquire and analyze the data (Becton Dickinson biosciences, Heidelberg). FACS staining and measuring of the fluorescence intensity are performed as described in Current Protocols in Immunology (Coligan, Kruisbeek, Margulies, Shevach and Strober, Wiley-Interscience, 2002).

Binder	binding result
B1	no binding
B2	no binding
B3	no binding
B4	no binding
B5	no binding
